The record followed here is PMC6013234, “DENR–MCTS1 heterodimerization and tRNA recruitment are required for translation reinitiation” (PLoS Biology, 2018).

The test addresses T1, untagged full-length WT MCTS1 (human, UniProt Q9ULC4 1-181).
T1 construct: MCTS1, human, ORF in pETDuet under its own T7 promotor, untagged; also called MCT-1; source: E. coli BL21 (DE3), coexpressed with HIS-tagged DENR variants; in lysate for the pull-down, co-purified (NiNTA, SEC) for crystallization
T1 sequence (looked up): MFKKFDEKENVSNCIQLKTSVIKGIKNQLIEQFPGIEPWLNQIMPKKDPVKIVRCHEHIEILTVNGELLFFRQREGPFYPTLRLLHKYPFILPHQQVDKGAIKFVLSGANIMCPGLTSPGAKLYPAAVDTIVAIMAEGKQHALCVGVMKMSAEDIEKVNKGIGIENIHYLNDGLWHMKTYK
In words: pull-down; N-terminally HIS-tagged DENR variants or fragments coexpressed with untagged MCTS1 in E. coli; DENR purified over a nickel column, copurifying MCTS1 detected in the eluate. The following applies: partners not purified.

B1: NHis6-tagged DENR aas 24–51 (domain or fragment, human, UniProt O43583 24-51, looked up)
chain: DADYPLRVLYCGVCSLPTEYCEYMPDVA
notes: DENR, human, residues 24-51; also called DENR(aa24–51); DENR peptide; source: E. coli BL21 (DE3), coexpressed with untagged MCTS1; in lysate for the pull-down, purified (NiNTA, SEC) for crystallization; not shown: His6, N-terminal, kept
For the molecule B1, the binding result is reported as “binds”.
